# In US9221867B2, “Method for transporting a compound across the blood-brain barrier” (Angiochem Inc., priority 2003, dated 2015):
# Entries after “also recorded” stand apart in the source; their conditions may differ. Like-named read-outs stand apart in the source and are kept apart here. Where a SMILES comes first, the peptide text is derived from it.
# Tests used:
# [1] = system: bovine brain capillary endothelial cells (BBCECs); experiment: Transcytosis of 125I-proteins across BBCEC monolayers (in vitro blood-brain barrier model); details: for Transcytosis: across in vitro BBB model; for Ratios Aprotinin/Protein: aprotinin transcytosis divided by that of the named protein
# Description: (§1) The model consists of a co-culture of bovine brain capillary endothelial cells and rat glial cells.
# (§2) The in vitro model of BBB was established by using a co-culture of BBCECs and astrocytes. Prior to cell culture, plate inserts (Millicell-PC 3.0 μM; 30-mm diameter) were coated on the upper side with rat tail collagen. They were then set in six-well microplates containing the astrocytes and BBCECs were plated on the upper side of the filters in 2 mL of co-culture medium. This BBCEC medium was changed three times a week. Under these conditions, differentiated BBCECs formed a confluent monolayer 7 days later. Experiments were performed between 5 and 7 days after confluence was reached. The permeability coefficient for sucrose was measured to verify the endothelial permeability.
# (§3) Briefly, after removing the meninges, the brain tissue was forced gently through a 82 μm nylon sieve. Astrocytes were plated on six-well microplates at a concentration of 1.2×10^5 cells/mL in 2 mL of optimal culture medium (DMEM) supplemented with 10% heat inactivated fetal bovine serum. The medium was changed twice a week.
# (§4) Bovine brain capillary endothelial cells (BBCECs) were obtained from Cellial Technologies. The cells were cultured in the presence of DMEM medium supplemented with 10% (v/v) horse serum and 10% heat-inactivated calf serum, 2 mM of glutamine, 50 μg/mL of gentamycin, and 1 ng/mL of basic fibroblast growth factor, added every other day.
# (§5) One insert covered with BBCECs was set into a six-well microplate with 2 mL of Ringer-Hepes and was pre-incubated for 2 h at 37° C. [^125I]-aprotinin, [^125I]-p97, [^125I]-ceruloplasmin or [^125I]-transferrin (250 nM final concentration) was added to the upper side of the filter covered with cells. At various times, the insert was transferred to another well to avoid a possible reendocytosis of [^125I]-proteins by the abluminal side of the BBCECs. At the end of experiment, [^125I]-proteins were assessed in 500 μL of the lower chamber of well by TCA precipitation.
# (§6) Aprotinin, p97 and bovine holo-transferrin were iodinated with standard procedures using iodo-beads from Sigma™. Bovine holo-transferrin was diluted in 0.1M phosphate buffer, pH 6.5 (PB). P97 obtained from Synapse Technologies in neutralized citrate at pH 7.0 was dialyzed against this PB. Two iodo-beads were used for each protein. These beads were washed twice with 3 mL of PB on a Whatman™ filter and resuspended in 60 μL of PB. ^125I (1 mCi) from Amersham-Pharmacia biotech was added to the bead suspension for 5 minutes at room temperature. The iodination for each protein was initiated by the addition of 100 μg (80-100 μL).
# [2] = system: bovine brain capillary endothelial cells (BBCECs)
# Description: as §1, §2, §3, §4, §5, §6
# [3] = system: endothelial cell monolayers (in vitro blood-brain barrier model)
# Description: (§7) The permeability coefficient (Pe) was calculated as:
# (§8) At the end of the experiments, amounts of the radiotracers in the basolateral compartment were measured in a liquid scintillation counter. The permeability coefficient (Pe) for sucrose was calculated as previously described (Dehouck, M. P., Jolliet-Riant, P., Brée, F., Fruchart, J. C., Cecchelli, R., Tillement, J. P., J. Neurochem. 58:1790-1797, 1992) using filters coated or non-coated with EC.
# (§9) The transport of Angio-pep1 from the apical-to-basolateral side of inserts covered with or without endothelial cell monolayers was measured. The results are expressed as the clearance of Angio-pep1 as a function of time. The slopes correspond to the permeability of the peptide through the filter alone (Psf) and to the total permeability of the endothelial cell monolayers (Pst).
# (§10) The permeability coefficients for Angio-pep1, aprotinin, leptin and transferrin were determined using the in vitro blood-brain barrier model. The permeability coefficient (Pe) was calculated as described above.
# in vitro = details: bovine
# Description: as §7, §8, §9, §10
# [4] = system: endothelial cell monolayers (in vitro blood-brain barrier model); experiment: Permeability coefficient (Pe) of proteins in the in vitro blood-brain barrier model; details: for Ratios (permeability coefficients): Pe of Angio-pep1 divided by Pe of the named protein; for Permeability coefficient (Pe): in vitro blood-brain barrier model
# Description: as §7, §8, §9, §10
# BBCEC monolayers = experiment: SDS-PAGE/autoradiography of protein integrity after transcytosis across BBCEC monolayers; format: in vitro ADME, bovine; details: 250 nM, SDS-PAGE, FIG. 4
# Description: At each time point, filters were put in the next well of the 6-well plates. At the end of the experiment, aliquots were taken in each well and submitted to SDS-PAGE. Gels were then submitted to detection by autoradiography. The results, presented in FIG. 4, indicate that aprotinin integrity is not affected by its transcytosis across BBCEC monolayers.
# mouse brain = experiment: In situ mouse brain perfusion (apparent volume of distribution); details: 10 min perfusion
# Description: The uptake of [^125I]-aprotinin to the luminal side of mouse brain capillaries was measured using the in situ brain perfusion method adapted in our laboratory for the study of drug uptake in the mouse brain (Dagenais et al., 2000, J. Cereb. Blood Flow Metab. 20(2):381-386). Briefly, the right common carotid of ketamine/xylazine (140/8 mg/kg i.p.) anesthetized mice was exposed and ligated at the level of the bifurcation of the common carotid, rostral to the occipital artery. The common carotid was then catheterized rostrally with polyethylene tubing (0.30 mm i.d.×0.70 mm o.d.) filled with heparin (25 U/ml) and mounted on a 26-gauge needle. The syringe containing the perfusion fluid (10 nM of [^125I]-aprotinin in Krebs/bicarbonate buffer at a pH7.4 gassed with 95% O2 and 5% CO2) was placed in an infusion pump (Harvard pump PHD 2000; Harvard Apparatus) and connected to the catheter. […]
# Aprotinin uptake was expressed as the volume of distribution (Vd) from the following equation: Vd=Q*br/C*pf where Q*br is the calculated quantity of [^125I]-aprotinin per gram of right brain hemisphere and C*pf is the labeled tracer concentration measured in the perfusate.
# The brain apparent volume of distribution was measured for [^125I]-transferrin, [^125I]-aprotinin and [^125I]-Angio-pep1. […]
Compound,Transcytosis [1] [pmol/h/cm^2],Ratios Aprotinin/Protein [1],Ratios (permeability coefficients) [4],Permeability coefficient (Pe) [4] [nm/s],also measured
Streptavidin: comparison protein in transcytosis experiment [reference compound],0.09,30,–,–,–
C[C@@H](O)[C@H](N)C(=O)N[C@@H](Cc1ccccc1)C(=O)N[C@@H](Cc1ccccc1)C(=O)N[C@@H](Cc1ccc(O)cc1)C(=O)NCC(=O)NCC(=O)N[C@@H](CS)C(=O)N[C@@H](CCCNC(=N)N)C(=O)NCC(=O)N[C@@H](CCCCN)C(=O)N[C@@H](CCCNC(=N)N)C(=O)N[C@@H](CC(N)=O)C(=O)N[C@@H](CC(N)=O)C(=O)N[C@@H](Cc1ccccc1)C(=O)N[C@@H](CCCCN)C(=O)N[C@H](C(=O)N[C@@H](CCC(=O)O)C(=O)N[C@@H](CCC(=O)O)C(=O)N[C@@H](Cc1ccc(O)cc1)C(=O)O)[C@@H](C)O [Angio-pep1] (H-TFFYGGCRGKRNNFKTEEY-OH; N-terminus and C-terminus assumed),–,–,–,–,"transcytosis capacity compared with other proteins [2]: higher than that of other proteins including aprotinin, leptin and transferrin; Ratios (permeability coefficients) [3]: 1; Permeability coefficient (Pe) ([3]; bovine): 200 nm/s; Papp A→B (in vitro): 200 nm/s"
Leptin: comparison protein for permeability coefficient [reference compound],–,–,21,9.17,–
aprotinin,2.7,1,7.5,26.7,"integrity of the protein after transcytosis across BBCEC monolayers (BBCEC monolayers): not affected; brain uptake / apparent volume of distribution (mouse brain): higher brain uptake; also recorded: higher than that of transferrin; transcytosis capacity compared with other proteins ([1]; in vitro blood-brain barrier model): higher transcytosis capacity than transferrin, p97 or ceruloplasmin; transendothelial transport / transcytosis of aprotinin higher than that of other proteins ([1]; versus other tested proteins incl. transferrin, ceruloplasmin): 10-50 fold"
